Biological target: the molecule itself
Experiment: FRET by flow cytometry, mixtures of Annexin A5-FITC and Annexin A5-Alexa568 on PtdSer-coated paramagnetic beads
Description: Formation of two-dimensional lattices on the phospholipids surfaces was assessed FRET (fluorescence resonance energy transfer) analysis. Paramagnetic beads (1-4 μm in diameter) that were coated with a phospholipids bilayer containing PtdSer were incubated with mixtures of Annexin A5-FITC and Annexin A5-Alexa568 or mixtures of M23-FITC and M23-Alexa568. Fluorescence intensity of the beads was then measured by flow cytometry (Coulter Epics XL-MLC™) using an excitation of 488 nm and emission ranges of 515-530 nm (F11) and >600 nm (F13).

B1: Annexin A5 (other)
chain: AQVLRGTVTDFPGFDERADAETLRKAMKGLGTDEESILTLLTSRSNAQRQEISAAFKTLFGRDLLDDLKSELTGKFEKLIVALMKPSRLYDAYELKHALKGAGTNEKVLTEIIASRTPEELRAIKQVYEEEYGSSLEDDVVGDTSGYYQRMLVVLLQANRDPDAGIDEAQVEQDAQALFQAGELKWGTDEEKFITIFGTRSVSHLRKVFDKYMTISGFQIEETIDRETSGNLEQLLLAVVKSIRSIPAYLAETLYYAMKGAGTDDHTLIRVMVSRSEIDLFNIRKEFRKNFATSLYSMIKGDTSGDYKKALLLLCGEDD
modifications: FITC or Alexa568-succinimidylester coupled to amines (positions not stated)
notes: The FRET assay used mixtures of Annexin A5-FITC and Annexin A5-Alexa568 on paramagnetic beads coated with a PtdSer bilayer; also called Annexin A5-FITC; Annexin A5-Alexa568
B1: binds.
